Usually stoichiometry N stands for a count of units in the complex or per binding partner.

In test [1] the target is HPV16 L1L2 pseudovirus (human papillomavirus type 16) (UniProt P03101).
For the next test, the target named is T1, HPV16 L1L2 pseudovirus (Human papillomavirus type 16, L1 …).
T1 construct: also called HPV16 PsV; HPV16 PsVs; copies: 360 +
T1 chain: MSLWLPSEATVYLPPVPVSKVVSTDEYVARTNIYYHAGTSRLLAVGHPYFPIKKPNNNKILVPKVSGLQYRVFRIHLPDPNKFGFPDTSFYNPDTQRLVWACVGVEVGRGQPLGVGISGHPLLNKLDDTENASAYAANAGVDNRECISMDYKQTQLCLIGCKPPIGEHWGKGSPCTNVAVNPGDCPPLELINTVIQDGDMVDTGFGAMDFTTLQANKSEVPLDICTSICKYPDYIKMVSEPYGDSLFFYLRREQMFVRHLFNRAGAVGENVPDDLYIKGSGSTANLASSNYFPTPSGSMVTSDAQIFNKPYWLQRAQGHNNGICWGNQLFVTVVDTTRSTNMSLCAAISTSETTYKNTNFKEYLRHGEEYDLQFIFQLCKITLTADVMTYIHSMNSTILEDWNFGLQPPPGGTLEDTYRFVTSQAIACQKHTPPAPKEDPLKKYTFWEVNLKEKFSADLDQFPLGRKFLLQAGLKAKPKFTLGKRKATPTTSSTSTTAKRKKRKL
As to the kind of experiment: cryo-EM structure. To be noted: both partners purified.

B1: rabbit monoclonal antibody H16.001 (antibody, V domains shown)
VH: QSVKESEGRLVTPGTPLTLTCTASGFTMSRYHMTWVRQAPGKGLEWIGIIYARNSDTYYANWAKGRFTISKTSTTVDLKITSPTIEDTATYFCARVDSDSSGAFDRLDLWGQGTLVTVSS
VL: DPMLTQTAASVEVAVGGTVTIKCQASQSIGGYLSWYQQKPGQRPKLLIYRASTLASGVPSRFKGSGSGTEYTLTFSGVECADAAAYYCQQGYTSSDINNAFGGGTEVVVK
In test [1], B1 had a PsV-based neutralization assay on 293FT cells: IC50, the antibody concentration required to block viral entry by 50% of 0.4 ng/mL.

B2: H16.001 Fab (Fab, V domains shown)
VH: QSVKESEGRLVTPGTPLTLTCTASGFTMSRYHMTWVRQAPGKGLEWIGIIYARNSDTYYANWAKGRFTISKTSTTVDLKITSPTIEDTATYFCARVDSDSSGAFDRLDLWGQGTLVTVSS
VL: DPMLTQTAASVEVAVGGTVTIKCQASQSIGGYLSWYQQKPGQRPKLLIYRASTLASGVPSRFKGSGSGTEYTLTFSGVECADAAAYYCQQGYTSSDINNAFGGGTEVVVK
notes: also called Fab H16.001; H16.001 Fabs
For B2, in the test with HPV16 L1L2 pseudovirus, the “stoichiometry N” value came to 360 Fabs per capsid.

For the origin of these results see PMC7511963 (NPJ Vaccines, 2020).
